Results reported in article PMC12416549 (2024).

Target: T1, TNFR1 (Homo sapiens, UniProt P19438)
T1 chain: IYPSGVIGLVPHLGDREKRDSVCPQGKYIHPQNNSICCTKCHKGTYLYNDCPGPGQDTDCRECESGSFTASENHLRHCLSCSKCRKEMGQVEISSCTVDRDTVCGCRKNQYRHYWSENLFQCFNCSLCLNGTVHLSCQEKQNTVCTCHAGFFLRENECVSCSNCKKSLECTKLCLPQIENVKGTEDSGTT
Experiment: yeast display SC50

Binder	apparent Kd (screen) [nM]
A47D (designed binder) SMEEEVEKAAKEYEKKKKEAIEKHLEKLKAKDKEAAERFLKELEEADKEYAKDEAKTMSEEEAKRRAKKYKEKVLLSELSEEEQKEIKEAEEKLVRTILKYVEEAAK	1.16
R65W (designed binder) SMEEEVEKAAKEYEKKKKEAIEKHLEKLKAKDKEAAERFLKELEEAAKEYAKDEAKTMSEEEAKWRAKKYKEKVLLSELSEEEQKEIKEAEEKLVRTILKYVEEAAK	11.4
T57E (designed binder) SMEEEVEKAAKEYEKKKKEAIEKHLEKLKAKDKEAAERFLKELEEAAKEYAKDEAKEMSEEEAKRRAKKYKEKVLLSELSEEEQKEIKEAEEKLVRTILKYVEEAAK	3
E44Y (designed binder) SMEEEVEKAAKEYEKKKKEAIEKHLEKLKAKDKEAAERFLKELYEAAKEYAKDEAKTMSEEEAKRRAKKYKEKVLLSELSEEEQKEIKEAEEKLVRTILKYVEEAAK	1.54
E14A (designed binder) SMEEEVEKAAKEYAKKKKEAIEKHLEKLKAKDKEAAERFLKELEEAAKEYAKDEAKTMSEEEAKRRAKKYKEKVLLSELSEEEQKEIKEAEEKLVRTILKYVEEAAK	3
E49Y (designed binder) SMEEEVEKAAKEYEKKKKEAIEKHLEKLKAKDKEAAERFLKELEEAAKYYAKDEAKTMSEEEAKRRAKKYKEKVLLSELSEEEQKEIKEAEEKLVRTILKYVEEAAK	26.9
E7V (designed binder) SMEEEVVKAAKEYEKKKKEAIEKHLEKLKAKDKEAAERFLKELEEAAKEYAKDEAKTMSEEEAKRRAKKYKEKVLLSELSEEEQKEIKEAEEKLVRTILKYVEEAAK	7.78
A46W (designed binder) SMEEEVEKAAKEYEKKKKEAIEKHLEKLKAKDKEAAERFLKELEEWAKEYAKDEAKTMSEEEAKRRAKKYKEKVLLSELSEEEQKEIKEAEEKLVRTILKYVEEAAK	2.25
A63V (designed binder) SMEEEVEKAAKEYEKKKKEAIEKHLEKLKAKDKEAAERFLKELEEAAKEYAKDEAKTMSEEEVKRRAKKYKEKVLLSELSEEEQKEIKEAEEKLVRTILKYVEEAAK	15.2
A67E (designed binder) SMEEEVEKAAKEYEKKKKEAIEKHLEKLKAKDKEAAERFLKELEEAAKEYAKDEAKTMSEEEAKRREKKYKEKVLLSELSEEEQKEIKEAEEKLVRTILKYVEEAAK	15.2
K8R (designed binder) SMEEEVERAAKEYEKKKKEAIEKHLEKLKAKDKEAAERFLKELEEAAKEYAKDEAKTMSEEEAKRRAKKYKEKVLLSELSEEEQKEIKEAEEKLVRTILKYVEEAAK	0.869
K64C (designed binder) SMEEEVEKAAKEYEKKKKEAIEKHLEKLKAKDKEAAERFLKELEEAAKEYAKDEAKTMSEEEACRRAKKYKEKVLLSELSEEEQKEIKEAEEKLVRTILKYVEEAAK	0.79
E5H (designed binder) SMEEHVEKAAKEYEKKKKEAIEKHLEKLKAKDKEAAERFLKELEEAAKEYAKDEAKTMSEEEAKRRAKKYKEKVLLSELSEEEQKEIKEAEEKLVRTILKYVEEAAK	0.446
D32R (designed binder) SMEEEVEKAAKEYEKKKKEAIEKHLEKLKAKRKEAAERFLKELEEAAKEYAKDEAKTMSEEEAKRRAKKYKEKVLLSELSEEEQKEIKEAEEKLVRTILKYVEEAAK	3.99
L43F (designed binder) SMEEEVEKAAKEYEKKKKEAIEKHLEKLKAKDKEAAERFLKEFEEAAKEYAKDEAKTMSEEEAKRRAKKYKEKVLLSELSEEEQKEIKEAEEKLVRTILKYVEEAAK	13.8
K23G (designed binder) SMEEEVEKAAKEYEKKKKEAIEGHLEKLKAKDKEAAERFLKELEEAAKEYAKDEAKTMSEEEAKRRAKKYKEKVLLSELSEEEQKEIKEAEEKLVRTILKYVEEAAK	0.446
E62I (designed binder) SMEEEVEKAAKEYEKKKKEAIEKHLEKLKAKDKEAAERFLKELEEAAKEYAKDEAKTMSEEIAKRRAKKYKEKVLLSELSEEEQKEIKEAEEKLVRTILKYVEEAAK	2.73
E5L (designed binder) SMEELVEKAAKEYEKKKKEAIEKHLEKLKAKDKEAAERFLKELEEAAKEYAKDEAKTMSEEEAKRRAKKYKEKVLLSELSEEEQKEIKEAEEKLVRTILKYVEEAAK	0.49
T57S (designed binder) SMEEEVEKAAKEYEKKKKEAIEKHLEKLKAKDKEAAERFLKELEEAAKEYAKDEAKSMSEEEAKRRAKKYKEKVLLSELSEEEQKEIKEAEEKLVRTILKYVEEAAK	1.27
M2F (designed binder) SFEEEVEKAAKEYEKKKKEAIEKHLEKLKAKDKEAAERFLKELEEAAKEYAKDEAKTMSEEEAKRRAKKYKEKVLLSELSEEEQKEIKEAEEKLVRTILKYVEEAAK	1.05
R65T (designed binder) SMEEEVEKAAKEYEKKKKEAIEKHLEKLKAKDKEAAERFLKELEEAAKEYAKDEAKTMSEEEAKTRAKKYKEKVLLSELSEEEQKEIKEAEEKLVRTILKYVEEAAK	2.05
D53H (designed binder) SMEEEVEKAAKEYEKKKKEAIEKHLEKLKAKDKEAAERFLKELEEAAKEYAKHEAKTMSEEEAKRRAKKYKEKVLLSELSEEEQKEIKEAEEKLVRTILKYVEEAAK	1.69
R65P (designed binder) SMEEEVEKAAKEYEKKKKEAIEKHLEKLKAKDKEAAERFLKELEEAAKEYAKDEAKTMSEEEAKPRAKKYKEKVLLSELSEEEQKEIKEAEEKLVRTILKYVEEAAK	20.2

Now from value to binder:

apparent Kd (screen) [nM]	Binder
1.4	K68H (designed binder) SMEEEVEKAAKEYEKKKKEAIEKHLEKLKAKDKEAAERFLKELEEAAKEYAKDEAKTMSEEEAKRRAHKYKEKVLLSELSEEEQKEIKEAEEKLVRTILKYVEEAAK
1.4	L94K (designed binder) SMEEEVEKAAKEYEKKKKEAIEKHLEKLKAKDKEAAERFLKELEEAAKEYAKDEAKTMSEEEAKRRAKKYKEKVLLSELSEEEQKEIKEAEEKKVRTILKYVEEAAK
1.4	L76V (designed binder) SMEEEVEKAAKEYEKKKKEAIEKHLEKLKAKDKEAAERFLKELEEAAKEYAKDEAKTMSEEEAKRRAKKYKEKVLVSELSEEEQKEIKEAEEKLVRTILKYVEEAAK
0.539	E82W (designed binder) SMEEEVEKAAKEYEKKKKEAIEKHLEKLKAKDKEAAERFLKELEEAAKEYAKDEAKTMSEEEAKRRAKKYKEKVLLSELSEWEQKEIKEAEEKLVRTILKYVEEAAK
5.84	V95D (designed binder) SMEEEVEKAAKEYEKKKKEAIEKHLEKLKAKDKEAAERFLKELEEAAKEYAKDEAKTMSEEEAKRRAKKYKEKVLLSELSEEEQKEIKEAEEKLDRTILKYVEEAAK
6.43	E91W (designed binder) SMEEEVEKAAKEYEKKKKEAIEKHLEKLKAKDKEAAERFLKELEEAAKEYAKDEAKTMSEEEAKRRAKKYKEKVLLSELSEEEQKEIKEAWEKLVRTILKYVEEAAK
1.69	E72M (designed binder) SMEEEVEKAAKEYEKKKKEAIEKHLEKLKAKDKEAAERFLKELEEAAKEYAKDEAKTMSEEEAKRRAKKYKMKVLLSELSEEEQKEIKEAEEKLVRTILKYVEEAAK
11.4	L99S (designed binder) SMEEEVEKAAKEYEKKKKEAIEKHLEKLKAKDKEAAERFLKELEEAAKEYAKDEAKTMSEEEAKRRAKKYKEKVLLSELSEEEQKEIKEAEEKLVRTISKYVEEAAK
2.05	L99I (designed binder) SMEEEVEKAAKEYEKKKKEAIEKHLEKLKAKDKEAAERFLKELEEAAKEYAKDEAKTMSEEEAKRRAKKYKEKVLLSELSEEEQKEIKEAEEKLVRTIIKYVEEAAK
4.39	E91H (designed binder) SMEEEVEKAAKEYEKKKKEAIEKHLEKLKAKDKEAAERFLKELEEAAKEYAKDEAKTMSEEEAKRRAKKYKEKVLLSELSEEEQKEIKEAHEKLVRTILKYVEEAAK
3	K107F (designed binder) SMEEEVEKAAKEYEKKKKEAIEKHLEKLKAKDKEAAERFLKELEEAAKEYAKDEAKTMSEEEAKRRAKKYKEKVLLSELSEEEQKEIKEAEEKLVRTILKYVEEAAF
0.869	K69F (designed binder) SMEEEVEKAAKEYEKKKKEAIEKHLEKLKAKDKEAAERFLKELEEAAKEYAKDEAKTMSEEEAKRRAKFYKEKVLLSELSEEEQKEIKEAEEKLVRTILKYVEEAAK
